Reference: patent publication US20200353049A1
“And” between values parts separate entries of the source, which are not always exact repeats. Equal entries are not always repeated.

Columns and labels:
[1] = biological target: IL-22R1a extracellular domain (ECD) (UniProt Q8N6P7); test: binding ELISA on plate-coated IL-22R1a ECD, relative to Reference Standard (100%); stored -20 C, 24 months
[2] = biological target: IL-22R1a extracellular domain (ECD) (UniProt Q8N6P7); test: binding ELISA on plate-coated IL-22R1a ECD, relative to Reference Standard (100%); stored 5 C, 3 months
[3] = biological target: IL-22R1a extracellular domain (ECD) (UniProt Q8N6P7); test: as above; remark: listed apart in the source
[4] = biological target: IL-22R1a extracellular domain (ECD) (UniProt Q8N6P7); test: potency assay (binding ELISA on plate-coated IL-22R1a ECD), relative to reference standard; 40 C stress, day 0
[5] = biological target: IL-22R1a extracellular domain (ECD) (UniProt Q8N6P7); test: binding ELISA on plate-coated IL-22R1a ECD, relative to Reference Standard (100%); stored -20 C, 18 months
[6] = biological target: IL-22R1a extracellular domain (ECD) (UniProt Q8N6P7); test: potency assay (binding ELISA on plate-coated IL-22R1a ECD), relative to reference standard; 40 C stress, day 14
[7] = biological target: IL-22R1a extracellular domain (ECD) (UniProt Q8N6P7); test: potency assay (binding ELISA on plate-coated IL-22R1a ECD), relative to reference standard (100%); stored 5 C, 48 months
[8] = biological target: IL-22R1a extracellular domain (ECD) (UniProt Q8N6P7); test: binding ELISA on plate-coated IL-22R1a ECD, relative to Reference Standard (100%); stored -20 C, 48 months
[9] = biological target: IL-22R1a extracellular domain (ECD) (UniProt Q8N6P7); test: potency assay (binding ELISA on plate-coated IL-22R1a ECD), relative to reference standard (100%); stored 5 C, 30 months
[10] = biological target: IL-22R1a extracellular domain (ECD) (UniProt Q8N6P7); test: binding ELISA on plate-coated IL-22R1a ECD, relative to Reference Standard (100%); stored -20 C, 3 months
[11] = biological target: IL-22R1a extracellular domain (ECD) (UniProt Q8N6P7); test: potency assay (binding ELISA on plate-coated IL-22R1a ECD), relative to reference standard (100%); T=0
[12] = biological target: IL-22R1a extracellular domain (ECD) (UniProt Q8N6P7); test: potency assay (binding ELISA on plate-coated IL-22R1a ECD), relative to reference standard (100%); stored 25 C, 3 months
[13] = biological target: IL-22R1a extracellular domain (ECD) (UniProt Q8N6P7); test: potency assay (binding ELISA on plate-coated IL-22R1a ECD), relative to reference standard (100%); stored 25 C, 2 months
[14] = biological target: IL-22R1a extracellular domain (ECD) (UniProt Q8N6P7); test: binding ELISA on plate-coated IL-22R1a ECD, relative to Reference Standard (100%); stored -20 C, 9 months
[15] = biological target: IL-22R1a extracellular domain (ECD) (UniProt Q8N6P7); test: potency assay (binding ELISA on plate-coated IL-22R1a ECD), relative to reference standard (100%); stored 5 C, 3 months
[16] = biological target: IL-22R1a extracellular domain (ECD) (UniProt Q8N6P7); test: potency assay (binding ELISA on plate-coated IL-22R1a ECD), relative to reference standard (100%); stored 5 C, 18 months
[17] = biological target: IL-22R1a extracellular domain (ECD) (UniProt Q8N6P7); test: binding ELISA on plate-coated IL-22R1a ECD, relative to Reference Standard (100%); stored -20 C, 30 months
[18] = biological target: IL-22R1a extracellular domain (ECD) (UniProt Q8N6P7); test: potency assay (binding ELISA on plate-coated IL-22R1a ECD), relative to reference standard (100%); stored 25 C, 6 months
[19] = biological target: IL-22R1a extracellular domain (ECD) (UniProt Q8N6P7); test: binding ELISA on plate-coated IL-22R1a ECD, relative to Reference Standard (100%); stored -20 C, 24 months; remark: listed apart in the source
[20] = biological target: IL-22R1a extracellular domain (ECD) (UniProt Q8N6P7); test: binding ELISA on plate-coated IL-22R1a ECD, relative to Reference Standard; pH 7.0 formulation stored 4 weeks at 30 C
[21] = biological target: IL-22R1a extracellular domain (ECD) (UniProt Q8N6P7); test: binding ELISA on plate-coated IL-22R1a ECD, relative to Reference Standard (100%); stored -20 C, 36 months
[22] = biological target: IL-22R1a extracellular domain (ECD) (UniProt Q8N6P7); test: binding ELISA on plate-coated IL-22R1a ECD, relative to Reference Standard (100%); stored -20 C, 18 months; remark: listed apart in the source
[23] = biological target: IL-22R1a extracellular domain (ECD) (UniProt Q8N6P7); test: potency assay (binding ELISA on plate-coated IL-22R1a ECD); change after 2 weeks at 40 C; this end matches Reference Standard Batch in Table 26 (104 to 71)
[24] = biological target: IL-22R1a extracellular domain (ECD) (UniProt Q8N6P7); test: binding ELISA on plate-coated IL-22R1a ECD, relative to Reference Standard (100%); stored -20 C, 12 months
[25] = biological target: IL-22R1a extracellular domain (ECD) (UniProt Q8N6P7); test: potency assay (binding ELISA on plate-coated IL-22R1a ECD), relative to reference standard; 40 C stress, day 10
[26] = biological target: IL-22R1a extracellular domain (ECD) (UniProt Q8N6P7); test: potency assay (binding ELISA on plate-coated IL-22R1a ECD), relative to reference standard (100%); stored 5 C, 3 months; remark: listed apart in the source
[27] = biological target: IL-22R1a extracellular domain (ECD) (UniProt Q8N6P7); test: binding ELISA on plate-coated IL-22R1a ECD, relative to Reference Standard (100%); stored -20 C, 60 months
[28] = biological target: IL-22R1a extracellular domain (ECD) (UniProt Q8N6P7); test: binding ELISA on plate-coated IL-22R1a ECD, relative to Reference Standard (100%); stored -20 C, 6 months

UniProt Q8N6P7, sequence (Q8N6P7 16-228 limits assumed): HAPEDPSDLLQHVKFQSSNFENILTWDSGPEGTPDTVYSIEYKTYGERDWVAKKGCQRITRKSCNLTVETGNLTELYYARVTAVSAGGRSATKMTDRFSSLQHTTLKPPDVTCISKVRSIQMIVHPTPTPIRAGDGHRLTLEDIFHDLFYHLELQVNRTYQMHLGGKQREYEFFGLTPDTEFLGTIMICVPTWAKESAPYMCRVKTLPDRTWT

For IL-22 Fc fusion protein, the Potency by Binding Assay (% relative potency) (% relative potency) [1] was 70, the Potency by Binding Assay (% relative potency) (% relative potency) [2] was 73 and the Potency by Binding Assay (% relative potency) (% relative potency) [3] was 105. For the same substance, the Potency (% relative potency) (% relative potency) [4] was 104 and 85, the Potency by Binding Assay (% relative potency) (% relative potency) [5] was 70 and the Potency (% relative potency) (% relative potency) [6] was 71 and 57. For the same substance, the Potency (% relative potency) (% relative potency) [7] was 91, the Potency by Binding Assay (% relative potency) (% relative potency) [8] was 72 and the Potency (% relative potency) (% relative potency) [9] was 65. For the same substance, the Potency by Binding Assay (% relative potency) (% relative potency) [10] was 72, the Potency (% relative potency) (% relative potency) [11] was 101 and the Potency (% relative potency) (% relative potency) [12] was 95. For the same substance, the Potency (% relative potency) (% relative potency) [13] was 60, the Potency by Binding Assay (% relative potency) (% relative potency) [14] was 68 and the Potency (% relative potency) (% relative potency) [15] was 104. The Potency (% relative potency) (% relative potency) [16] was 64, the Potency by Binding Assay (% relative potency) (% relative potency) [17] was 70 and the Potency (% relative potency) (% relative potency) [18] was 47. The Potency by Binding Assay (% relative potency) (% relative potency) [19] was 97, the Estimated % relative potency (n = 2) (% relative potency) [20] was 79 and the Potency by Binding Assay (% relative potency) (% relative potency) [21] was 107. It also gave a Potency by Binding Assay (% relative potency) (% relative potency) [22] of 101, a decrease in % relative potency (% relative potency) [23] of 33 and a Potency by Binding Assay (% relative potency) (% relative potency) [24] of 91. The Potency (% relative potency) (% relative potency) [25] was 84 and 65, the Potency (% relative potency) (% relative potency) [26] was 73 and the Potency by Binding Assay (% relative potency) (% relative potency) [27] was 99. It also gave a Potency by Binding Assay (% relative potency) (% relative potency) [28] of 112.
